The values below come from patent US20190033295A1 (published 2019).

In this assay the target is HSP70 protein (UniProt P0DMV8 1-641). As to the kind of experiment: SPR.

The term Kd denotes the free concentration of one partner at which half of the binding sites on the other are occupied at equilibrium, for simple one-to-one binding. Higher therefore signals lower affinity.

HSP70 protein, sequence (P0DMV8 whole entry): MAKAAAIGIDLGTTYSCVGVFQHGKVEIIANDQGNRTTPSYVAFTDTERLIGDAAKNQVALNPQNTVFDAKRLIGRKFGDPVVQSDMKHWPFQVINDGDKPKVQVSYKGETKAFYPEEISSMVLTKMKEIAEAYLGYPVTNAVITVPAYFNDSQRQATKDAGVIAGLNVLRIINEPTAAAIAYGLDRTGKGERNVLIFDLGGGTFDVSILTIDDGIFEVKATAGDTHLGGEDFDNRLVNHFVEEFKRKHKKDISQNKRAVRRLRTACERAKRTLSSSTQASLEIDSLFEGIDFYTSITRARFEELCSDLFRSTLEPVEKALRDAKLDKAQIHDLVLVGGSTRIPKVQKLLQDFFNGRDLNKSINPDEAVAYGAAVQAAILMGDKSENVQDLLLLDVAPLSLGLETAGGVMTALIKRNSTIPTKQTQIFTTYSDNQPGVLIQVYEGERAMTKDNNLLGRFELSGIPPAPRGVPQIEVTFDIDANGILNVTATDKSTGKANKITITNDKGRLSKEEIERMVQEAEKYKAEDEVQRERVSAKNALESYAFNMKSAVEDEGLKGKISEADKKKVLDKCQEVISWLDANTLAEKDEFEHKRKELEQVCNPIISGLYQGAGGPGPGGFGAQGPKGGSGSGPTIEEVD

B1: AIMP2-DX2 protein (other)
chain: MPMYQVKPYHGGGAPLRVELPTCMYRLPNVHGRSYGPAPGAGHVQDYGALKDIVINANPASPPLSLLVLHRLLCEHFRVLSTVHTHSSVKSVPENLLKCFGEQNKKQPRQDYQLGFTLIWKNVPKTQMKFSIQTMCPIEGEGNIARFLFSLFGQKHNAVNATLIDSWVDIAIFQLKEGSSKEKAAVFRSMNSALGKSPWLAGNELTVADVVLWSVLQQIGGCSVTVPANVQRWMRSCENLAPFNTALKLLK
Regarding B1, the Kd worked out at 479 pM.
